According to patent US20210170047A1 (CASE WESTERN RESERVE UNIVERSITY, published 2021):
Ends that are not written are not given here.

How the values were obtained:
[1] = target: T1, integrin αIIbβ3 (glycoprotein GPIIb-IIIa) on ADP-activated human platelets (human, UniProt P08514 32-1039; P05106 27-788); experiment: dual fluorescence microscopy, co-incubation with peptide-modified liposomes
T1 construct: whole, on cells; also called CD41a
Method: The [fibrinogen: liposome] ratio in the incubation assays was maintained at 400:1 by mole, to provide a physiologically relevant competitive environment. […] A 40× oil-immersion objective was used to visualize fluorescence from platelets. Images were collected in MetaMorph™ (Universal Imaging Corp.), using an exposure time of 500 ms and intensity analysis was performed in the software accordingly. Fluorescence intensity was recorded as mean intensity per pixel area for statistical analysis. All coverslips were prepared in duplicate, and at least three fields were examined for each well.

[2] = target: T2, integrin GPIIb-IIIa on resting (predominantly inactive, no ADP) human platelets (human, UniProt P08514 32-1039; P05106 27-788); experiment: flow cytometry, human whole blood without agonist
T2 construct: whole, on cells; also called predominantly resting platelets

[3] = target: T1, integrin αIIbβ3 (glycoprotein …); experiment: cell-based or functional assay
[4] = target: T1, integrin αIIbβ3 (glycoprotein …); experiment: flow cytometry, agonist-added human whole blood, 50 µM total lipid
Method: The effect of platelet activation on liposome binding was studied by a FACScan flow cytometer (Becton Dickinson) with a 488 nm laser and three color detector. For cytometry analysis whole blood aliquots with different platelet activation levels were used. The level of platelet-activation was assessed by simultaneous fluorescence staining of platelet integrin GPIIb-IIIa (with FITC-anti-CD41a) and P-Selectin (with PE-anti-CD62P). Previously we have reported on detecting progressive activation of platelets in freshly drawn blood with addition of agonists (e.g., ADP) and have confirmed that binding of RGD-modified liposomes to platelets increased in an activation-dependant manner. Following a similar protocol, whole blood aliquots containing predominantly activated platelets were incubated with PDPC-NBD-labeled cRGD-, lRGD-, or lRGE-modified liposomes at a final concentration of 50 μM total lipid. For the liposome incubated samples, FITC-anti-CD41a labeling was not used, while PE-anti-CD62P labeling was still used as an activated platelet marker. Simultaneous PE and NBD fluorescence, for gated platelet populations, was analyzed for ˜20,000 events (counts) per sample aliquot and fluorescence data were recorded accordingly. […]

[5] = target: T1, integrin αIIbβ3 (glycoprotein …); experiment: flow cytometry, human whole blood with ADP pre-incubation, 50 µM total lipid
Excerpt: Parallel phase contrast image of the same field of view was obtained on the same microscope, by shutting off the fluorescence laser, turning on the phase contrast light source and changing the objective from fluorescence to a phase contrast one, at same magnification. To establish that the specific binding of cRGD-liposomes is predominantly to activated platelets compared to quiescent platelets, we performed flow cytometry assays similar to that described in previous publications from our group. Briefly, NBD-labeled cRGD liposomes were incubated with aliquots of freshly drawn human whole blood with or without the addition of agonist ADP. […] Following 30 min of liposome incubation, the aliquots were analyzed in a Becton-Dickinson FACScan flow cytometer for NBD fluorescence. All aliquots were measured in triplicate and approximately 15000 counts were recorded per aliquot. […] The NBD fluorescence intensity from aliquots without liposome incubation, aliquots with liposome incubation but without ADP pre-incubation, and aliquots with liposome incubation after ADP pre-incubation, were recorded as histograms and the plots were overlaid for comparison.

[6] = target: T3, P-selectin on ADP-activated human platelets (human, UniProt P16109 42-830); experiment: fluorescence microscopy, static, collagen-adhered activated human platelets
T3 construct: whole, on cells; also called CD62P; P-selectins
T3 sequence (looked up): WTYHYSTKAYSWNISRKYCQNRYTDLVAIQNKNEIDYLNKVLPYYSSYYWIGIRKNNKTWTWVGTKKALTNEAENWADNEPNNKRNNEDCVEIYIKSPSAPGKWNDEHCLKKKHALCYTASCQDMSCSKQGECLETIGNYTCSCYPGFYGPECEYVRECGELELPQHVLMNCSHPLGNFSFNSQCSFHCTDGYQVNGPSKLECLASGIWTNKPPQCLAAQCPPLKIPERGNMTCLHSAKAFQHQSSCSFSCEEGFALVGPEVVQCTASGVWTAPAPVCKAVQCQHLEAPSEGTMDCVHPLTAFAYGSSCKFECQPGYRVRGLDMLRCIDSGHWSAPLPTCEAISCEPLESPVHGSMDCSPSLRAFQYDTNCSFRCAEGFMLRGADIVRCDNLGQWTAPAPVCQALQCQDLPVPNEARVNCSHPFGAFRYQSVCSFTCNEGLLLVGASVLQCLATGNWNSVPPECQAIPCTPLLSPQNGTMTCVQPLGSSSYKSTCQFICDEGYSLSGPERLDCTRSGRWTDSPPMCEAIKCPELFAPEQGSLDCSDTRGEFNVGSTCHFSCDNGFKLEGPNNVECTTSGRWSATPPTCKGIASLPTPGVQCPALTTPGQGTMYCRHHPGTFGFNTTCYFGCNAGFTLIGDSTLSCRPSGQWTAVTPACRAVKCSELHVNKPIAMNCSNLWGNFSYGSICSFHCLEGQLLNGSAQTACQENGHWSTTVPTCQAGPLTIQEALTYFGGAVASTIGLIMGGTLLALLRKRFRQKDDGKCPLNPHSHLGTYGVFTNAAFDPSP
Method: Receptor-specific binding studies in a static environment human whole blood was obtained from healthy, aspirin-refraining donors by venipuncture following IRB-approved protocol and collected in citrated tubes. Platelet-rich-plasma (PRP) was obtained from the whole blood by centrifugation (150×g, 15 min, room temperature), and platelet concentration was verified at 200×10⁶ platelets/ml. The platelets in PRP were activated using ADP at a concentration of 2×10⁻⁵M, and were allowed to adhere to glass coverslips pre-coated with collagen. […] After 1 h of incubation, the coverslips were gently washed with PBS to remove loosely bound liposomal constructs and imaged using fluorescence microscopy. […] D1 inverted fluorescence microscope fitted with a photometrics chilled CCD camera and a 63× objective using exposure time of 800 ms. To confirm that non-specific binding of the liposomes was not occurring, fluorescently-labeled peptide-modified liposomal constructs were incubated with coverslips coated with collagen only but no activated platelets, followed by gentle washing and imaged using fluorescence microscopy keeping same exposure times (800 ms).

T1 sequence (P08514 32-1039, chain 1 of 2): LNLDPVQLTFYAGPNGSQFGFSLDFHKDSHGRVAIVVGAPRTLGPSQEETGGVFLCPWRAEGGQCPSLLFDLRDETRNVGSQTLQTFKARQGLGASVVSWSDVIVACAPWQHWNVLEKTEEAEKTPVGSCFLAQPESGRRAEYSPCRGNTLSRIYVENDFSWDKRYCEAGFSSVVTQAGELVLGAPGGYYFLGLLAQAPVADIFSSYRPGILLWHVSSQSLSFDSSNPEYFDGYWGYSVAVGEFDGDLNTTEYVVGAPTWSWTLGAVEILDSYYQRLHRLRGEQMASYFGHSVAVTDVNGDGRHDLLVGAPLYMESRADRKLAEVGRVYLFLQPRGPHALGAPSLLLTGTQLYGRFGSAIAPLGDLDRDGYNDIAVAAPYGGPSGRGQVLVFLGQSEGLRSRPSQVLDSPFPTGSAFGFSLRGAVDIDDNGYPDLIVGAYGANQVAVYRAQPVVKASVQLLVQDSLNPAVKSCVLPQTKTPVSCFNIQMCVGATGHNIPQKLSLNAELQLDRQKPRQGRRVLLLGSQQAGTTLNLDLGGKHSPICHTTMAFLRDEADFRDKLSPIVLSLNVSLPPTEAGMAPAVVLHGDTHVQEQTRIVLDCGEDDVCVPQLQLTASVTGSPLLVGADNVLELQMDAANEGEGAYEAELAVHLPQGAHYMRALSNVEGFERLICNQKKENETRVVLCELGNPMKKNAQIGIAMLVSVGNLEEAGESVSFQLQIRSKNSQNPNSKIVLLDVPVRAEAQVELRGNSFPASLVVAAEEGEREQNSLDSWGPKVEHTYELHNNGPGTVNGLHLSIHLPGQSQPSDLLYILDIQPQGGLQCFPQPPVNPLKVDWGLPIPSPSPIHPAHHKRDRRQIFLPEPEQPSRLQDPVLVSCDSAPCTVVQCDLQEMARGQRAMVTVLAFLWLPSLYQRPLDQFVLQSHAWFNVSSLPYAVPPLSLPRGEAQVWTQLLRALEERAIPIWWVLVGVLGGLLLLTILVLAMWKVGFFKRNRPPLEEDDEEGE
T1 sequence (P05106 27-788, chain 2 of 2): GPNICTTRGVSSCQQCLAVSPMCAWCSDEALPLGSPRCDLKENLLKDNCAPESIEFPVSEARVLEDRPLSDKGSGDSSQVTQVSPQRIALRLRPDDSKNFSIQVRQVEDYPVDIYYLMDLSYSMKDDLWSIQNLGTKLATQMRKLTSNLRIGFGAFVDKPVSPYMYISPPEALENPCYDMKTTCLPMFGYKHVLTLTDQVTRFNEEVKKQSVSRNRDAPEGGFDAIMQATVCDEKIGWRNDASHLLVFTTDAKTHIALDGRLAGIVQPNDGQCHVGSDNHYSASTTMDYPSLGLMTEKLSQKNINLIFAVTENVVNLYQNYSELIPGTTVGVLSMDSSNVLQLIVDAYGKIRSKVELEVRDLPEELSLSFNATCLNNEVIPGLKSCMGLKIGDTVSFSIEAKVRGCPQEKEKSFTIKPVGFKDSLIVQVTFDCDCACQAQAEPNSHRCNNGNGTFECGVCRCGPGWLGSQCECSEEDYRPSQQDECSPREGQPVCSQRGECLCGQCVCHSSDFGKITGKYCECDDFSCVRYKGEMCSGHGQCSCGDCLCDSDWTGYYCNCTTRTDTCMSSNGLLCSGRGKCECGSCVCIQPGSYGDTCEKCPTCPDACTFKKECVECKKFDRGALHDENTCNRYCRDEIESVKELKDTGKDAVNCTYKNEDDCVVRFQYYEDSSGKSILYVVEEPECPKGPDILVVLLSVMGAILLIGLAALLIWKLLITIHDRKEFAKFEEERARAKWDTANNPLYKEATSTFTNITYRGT
T2 sequence (P08514 32-1039, chain 1 of 2): as the sequence (P08514 32-1039, chain 1 of 2) above
T2 sequence (P05106 27-788, chain 2 of 2): as the sequence (P05106 27-788, chain 2 of 2) above

B1: human fibrinogen (ligand)
chain 1: ADSGEGDFLAEGGGVRGPRVVERHQSACKDSDWPFCSDEDWNYKCPSGCRMKGLIDEVNQDFTNRINKLKNSLFEYQKNNKDSHSLTTNIMEILRGDFSSANNRDNTYNRVSEDLRSRIEVLKRKVIEKVQHIQLLQKNVRAQLVDMKRLEVDIDIKIRSCRGSCSRALAREVDLKDYEDQQKQLEQVIAKDLLPSRDRQHLPLIKMKPVPDLVPGNFKSQLQKVPPEWKALTDMPQMRMELERPGGNEITRGGSTSYGTGSETESPRNPSSAGSWNSGSSGPGSTGNRNPGSSGTGGTATWKPGSSGPGSTGSWNSGSSGTGSTGNQNPGSPRPGSTGTWNPGSSERGSAGHWTSESSVSGSTGQWHSESGSFRPDSPGSGNARPNNPDWGTFEEVSGNVSPGTRREYHTEKLVTSKGDKELRTGKEKVTSGSTTTTRRSCSKTVTKTVIGPDGHKEVTKEVVTSEDGSDCPEAMDLGTLSGIGTLDGFRHRHPDEAAFFDTASTGKTFPGFFSPMLGEFVSETESRGSESGIFTNTKESSSHHPGIAEFPSRGKSSSYSKQFTSSTSYNRGDSTFESKSYKMADEAGSEADHEGTHSTKRGHAKSRPV
chain 2: QGVNDNEEGFFSARGHRPLDKKREEAPSLRPAPPPISGGGYRARPAKAAATQKKVERKAPDAGGCLHADPDLGVLCPTGCQLQEALLQQERPIRNSVDELNNNVEAVSQTSSSSFQYMYLLKDLWQKRQKQVKDNENVVNEYSSELEKHQLYIDETVNSNIPTNLRVLRSILENLRSKIQKLESDVSAQMEYCRTPCTVSCNIPVVSGKECEEIIRKGGETSEMYLIQPDSSVKPYRVYCDMNTENGGWTVIQNRQDGSVDFGRKWDPYKQGFGNVATNTDGKNYCGLPGEYWLGNDKISQLTRMGPTELLIEMEDWKGDKVKAHYGGFTVQNEANKYQISVNKYRGTAGNALMDGASQLMGENRTMTIHNGMFFSTYDRDNDGWLTSDPRKQCSKEDGGGWWYNRCHAANPNGRYYWGGQYTWDMAKHGTDDGVVWMNWKGSWYSMRKMSMKIRPFFPQQ
chain 3: YVATRDNCCILDERFGSYCPTTCGIADFLSTYQTKVDKDLQSLEDILHQVENKTSEVKQLIKAIQLTYNPDESSKPNMIDAATLKSRKMLEEIMKYEASILTHDSSIRYLQEIYNSNNQKIVNLKEKVAQLEAQCQEPCKDTVQIHDITGKDCQDIANKGAKQSGLYFIKPLKANQQFLVYCEIDGSGNGWTVFQKRLDGSVDFKKNWIQYKEGFGHLSPTGTTEFWLGNEKIHLISTQSAIPYALRVELEDWNGRTSTADYAMFKVGPEADKYRLTYAYFAGGDAGDAFDGFDFGDDPSDKFFTSHNGMQFSTWDNDNDKFEGNCAEQDGSGWWMNKCHAGHLNGVYYQGGTYSKASTPNGYDNGIIWATWKTRWYSMKKTTMKIIPFNRLTIGEGQQHHLGGAKQAGDV
notes: the fibrinogen of human platelet-rich plasma in the aggregometry assay; also called Fg
[1]
  binding result: binds

B2: RGE-liposomes (liposomes surface-decorated with the negative control peptide GSSSGRGESPA) (peptide)
peptide: {DSPE‑PEG}-GSSSGRGESPA
modifications: also: displayed on liposome surface, 1 or 5 mol %
notes: also called lRGE-liposomes; constructs bearing negative control peptides
[2]
  binding result: no binding (tested: 50 µM total lipid)

B3: free cyclic RGD peptide cyclo-CNPRGDY(OEt)RC (peptide)
peptide: CNPRGDYRC
modifications: Y(OEt); terminal cysteines (C) cyclized through disulfide
[3]
  IC50: concentration of peptide required to inhibit fibrinogen-mediated platelet aggregation in platelet-rich plasma by 50% (aggregometry), against lRGD: ~1000 times lower than for lRGD
  IC50 estimation by aggregometry assay, against lRGD: ~100 fold lower than for lRGD (printed as 2 orders of magnitude)

B4: cRGD-liposomes (liposomes surface-decorated with DSPE-PEG-cRGD, cyclo-CNPRGDY(OEt)RC) (peptide)
peptide: CNPRGDYRC
modifications: not fully specified; Y(OEt); terminal cysteines cyclized through disulfide; N-terminus conjugated to DSPE-PEG lipid, displayed on the liposome surface
notes: NBD or Nanogold label; also called cyclic RGD-modified liposomes
[4]
  platelet-associated NBD fluorescence against lRGD-liposome-incubated aliquots: ~10 fold (printed as an order of magnitude)
[5]
  NBD fluorescence of ADP-activated platelets against inactive platelets: ~100 fold (printed as two orders of magnitude)

B5: DAEWVDVS-modified liposomes (liposomes surface-decorated with DSPE-PEG-DAEWVDVS) (peptide)
peptide: {DSPE‑PEG}-DAEWVDVS
modifications: also: displayed multivalently on ~150 nm liposome surface, 5 mol % (2.5-10 mol %)
notes: also called singly-targeted liposomes
[6]
  binding result: binds
